Reference: patent publication US20230192875A1 (KUMHO HT, published 2023)
Numbering of substitutions follows the chain as printed.

T1: recombinant antigen human CD40L (Recombinant Human sCD40 Ligand; Peprotech, Cat. No.: 310-02) (human, UniProt P29965 113-261)
T1 construct: Soluble recombinant CD40L; also called rCD40L; recombinant antigen CD40L
T1 chain: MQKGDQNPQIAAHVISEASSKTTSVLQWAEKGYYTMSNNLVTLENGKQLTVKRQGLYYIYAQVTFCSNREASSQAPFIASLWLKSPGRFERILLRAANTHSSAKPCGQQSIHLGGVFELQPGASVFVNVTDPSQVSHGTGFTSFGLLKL

B1: anti-CD40 5C2 chimeric antibody comprising human IgG1 constant region (antibody)
heavy: not shown
light: DIQMTQTTSSLSASLGQRVTISCRASQDISNHLNWYQQKPNGTVRLLISSTSRLHSGVPSRFSGSGSGTDYSLTISNLEQEDIATYFCQQGNTLPWTFGGGTKLEIKRTVAAPSVFIFPPSDEQLKSGTASVVCLLNNFYPREAKVQWKVDNALQSGNSQESVTEQDSKDSTYSLSSTLTLSKADYEKHKVYACEVTHQGLSSPVTKSFNRGEC
notes: expressed in ExpiCHO and purified on Protein A; also called Chimeric IgG1; IgG1 chimeric antibody
B2: anti-CD40 5C2 chimeric antibody comprising human IgG2 constant region (antibody)
heavy: QVQMLQSGTELVRPGTSVKVSCKASGYGFTNYLIEWVKQRPGQGLEWIGVINPGYGGVNYNEKFKGKAILTADKSSSTAYMHLTSLTSDDSAVYFCARGGSGFAFWGQGTLVTVSTASTKGPSVFPLAPCSRSTSESTAALGCLVKDYFPEPVTVSWNSGALTSGVHTFPAVLQSSGLYSLSSVVTVPSSNFGTQTYTCNVDHKPSNTKVDKTVERKCCVECPPCPAPPVAGPSVFLFPPKPKDTLMISRTPEVTCVVVDVSHEDPEVQFNWYVDGVEVHNAKTKPREEQFNSTFRVVSVLTVVHQDWLNGKEYKCKVSNKGLPAPIEKTISKTKGQPREPQVYTLPPSREEMTKNQVSLTCLVKGFYPSDIAVEWESNGQPENNYKTTPPMLDSDGSFFLYSKLTVDKSRWQQGNVFSCSVMHEALHNHYTQKSLSLSPGK
light: B1 light
notes: also called Chimeric IgG2; IgG2 chimeric antibody
B3: anti-CD40 5C2 chimeric antibody comprising human IgG4 constant region (antibody)
heavy: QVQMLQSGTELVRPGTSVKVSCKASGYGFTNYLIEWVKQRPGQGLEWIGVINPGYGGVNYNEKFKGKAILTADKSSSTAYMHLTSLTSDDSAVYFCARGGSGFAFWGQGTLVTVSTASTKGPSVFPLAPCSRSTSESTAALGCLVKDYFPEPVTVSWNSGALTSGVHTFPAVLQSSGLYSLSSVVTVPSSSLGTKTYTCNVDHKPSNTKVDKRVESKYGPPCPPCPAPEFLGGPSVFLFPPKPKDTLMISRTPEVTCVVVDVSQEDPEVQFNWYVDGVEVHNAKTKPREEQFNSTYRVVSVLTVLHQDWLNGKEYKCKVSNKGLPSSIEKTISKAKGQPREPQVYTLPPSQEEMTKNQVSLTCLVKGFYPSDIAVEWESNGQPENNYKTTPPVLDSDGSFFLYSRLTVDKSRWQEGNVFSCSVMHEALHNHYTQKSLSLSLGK
light: B1 light
notes: also called Chimeric IgG4; IgG4 chimeric antibody
B4: humanized 5C2 antibody VH1VL2 (a combination of heavy chain VH1 and light chain VL2) (antibody, human IgG2, V domains shown)
VH: QVQLVQSGAEVKKPGASVKVSCKASGYGFTNYLIEWVRQAPGQGLEWIGVINPGYGGVNYNEKFKGRATLTADKSISTAYMELSRLRSDDTAVYFCARGGSGFAFWGQGTLVTVSS
VL: EIVMTQSPATLSVSPGERATLSCRASQDISNHLNWYQQKPGQAVRLLISSTSRLHSGIPARFSGSGSGTEYTLTISSLQSEDFAVYFCQQGNTLPWTFGQGTKVEIK
notes: Tested as CHO culture supernatant
B5: humanized 5C2 antibody VH3VL2 (a combination of heavy chain VH3 and light chain VL2) (antibody, human IgG2, V domains shown)
VH: B4 VH with A16S, I76T, R85S, D89E
VL: B4 VL
notes: as for B4
B6: humanized 5C2 antibody VH2VL2 (a combination of heavy chain VH2 and light chain VL2) (antibody, human IgG2, V domains shown)
VH: B4 VH with A68V
VL: B4 VL
notes: as for B4
B7: humanized 5C2 antibody VH5VL1 (a combination of heavy chain VH5 and light chain VL1) (antibody, human IgG2, V domains shown)
VH: EVQLVQSGAEVKKPGESVKISCKASGYGFTNYLIEWVRQMPGKGLEWIGVINPGYGGVNYNEKFKGQATLSADKSISTAYLQLSSLKASDTAVYFCARGGSGFAFWGQGTLVTVSS
VL: DIQMTQSPSSLSASVGDRVTITCRASQDISNHLNWYQQKPGKAVKLLISSTSRLHSGVPSRFSGSGSGTDYTLTISSLQPEDFATYFCQQGNTLPWTFGQGTKVEIK
notes: as for B4
B8: humanized 5C2 antibody VH5VL2 (a combination of heavy chain VH5 and light chain VL2) (antibody, human IgG2, V domains shown)
VH: B7 VH
VL: B4 VL
notes: as for B4
B9: humanized 5C2 antibody VH1VL1 (a combination of heavy chain VH1 and light chain VL1) (antibody, human IgG2, V domains shown)
VH: B4 VH
VL: B7 VL
notes: as for B4
B10: humanized 5C2 antibody VH3VL1 (a combination of heavy chain VH3 and light chain VL1) (antibody, human IgG2, V domains shown)
VH: B4 VH with A16S, I76T, R85S, D89E
VL: B7 VL
notes: as for B4
B11: humanized 5C2 antibody VH2VL1 (a combination of heavy chain VH2 and light chain VL1) (antibody, human IgG2, V domains shown)
VH: B4 VH with A68V
VL: B7 VL
notes: as for B4
B12: anti-CD40 mouse monoclonal antibody 5C2 (antibody, V domains shown)
VH: QVQMLQSGTELVRPGTSVKVSCKASGYGFTNYLIEWVKQRPGQGLEWIGVINPGYGGVNYNEKFKGKAILTADKSSSTAYMHLTSLTSDDSAVYFCARGGSGFAFWGQGTLVTVST
VL: DIQMTQTTSSLSASLGQRVTISCRASQDISNHLNWYQQKPNGTVRLLISSTSRLHSGVPSRFSGSGSGTDYSLTISNLEQEDIATYFCQQGNTLPWTFGGGTKLEIK
notes: also called 5C2 antibody (mouse antibody); antibody of hybridoma KCLRF-BP-00381

Tests used:
[1] = target: T2, recombinant antigen human CD40 (Sino Biological Inc., Cat. No.: 10774-H02H) (human, UniProt P25942 21-193); assay: ELISA (FIG. 2)
T2 construct: Bought antigen used in the ELISA of the chimeric antibodies
T2 sequence (P25942 21-193 limits assumed): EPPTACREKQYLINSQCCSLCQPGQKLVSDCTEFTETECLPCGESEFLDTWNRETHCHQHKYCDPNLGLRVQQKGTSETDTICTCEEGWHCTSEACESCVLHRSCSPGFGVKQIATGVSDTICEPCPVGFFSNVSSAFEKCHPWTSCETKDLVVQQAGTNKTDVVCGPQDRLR
Method: A dilution of the recombinant antigen human CD40 (Sino Biological Inc., Cat. No.: 10774-H02H) at a concentration of 1.0 μg/mL in phosphate buffered saline was plated at 100 μL/well into microplates and incubated at 37° C. for one hour to coat the plates therewith. Then, a 1× blocking solution (Sigma) was added in an amount of 200 μL per well and incubated at 37° C. for one hour to block the antigen.
The dilutions were added in an amount of 100 μL/well, incubated at 37° C. for one hour and washed three times with phosphate buffered saline. The antibodies were treated with the secondary antibody goat anti-human IgG F(ab′)2-HRP (Jackson Immunoresearch, Cat. No.: 109-035-006) at 37° C. for 30 min and washed three times with phosphate buffered saline. After reaction with 100 μL of TMB Single Solution (Life Technologies, Cat. No: 002023) per well at room temperature for 4-10 min in a dark place, the color development was stopped with 100 μL of 1.0 N sulfuric acid and then absorbance at 450 nm was measured.

[2] = target: T3, recombinant human CD40 (R&D systems, Cat. No.: P25942) (human, UniProt P25942 21-193); assay: ELISA, coated rCD40 1.0 µg/mL, CHO culture supernatant
T3 construct: also called rCD40; human recombinant CD40
T3 sequence (P25942 21-193 limits assumed, one chain of several): as the sequence (P25942 21-193 limits assumed) above
Method: Each of the humanized antibody cultures was assayed for reactivity for a recombinant antigen human CD40 (rCD40; R&D systems, Cat. No.: P25942) by ELISA. For this assay, a dilution of rCD40 at a concentration of 1.0 μg/mL in phosphate buffered saline was plated at a density of 100 μL/well into microplates and incubated at 37° C. for one hour to coat the microplates with the antigen which was then blocked by adding a 1× blocking solution (Sigma) in an amount of 200 μl per well and incubating at 37° C. for one hour.
Following one hour of incubation with 100 μL of each of the humanized anti-CD40 antibody cultures at 37° C., the microplates were washed three times with phosphate buffered saline. Treatment with the secondary antibody goat anti-human IgG F(ab′)2-HRP (Jackson Immunoresearch, Cat. No.: 109-035-006) at 37° C. for 30 min was followed by three rounds of washing with phosphate buffered saline. Then, TMB Single Solution (Life Technologies, Cat. No: 002023) was added in an amount of 100 μl per well and incubated at room temperature for 5-10 min in a dark place. Color development was stopped with 100 μL of 1.0 N sulfuric acid and absorbance at 450 nm was measured.

[3] = target: T3, recombinant human CD40 (R&D systems, …); assay: ELISA, coated CD40 100 ng/well, hybridoma culture supernatant
Method: Human recombinant CD40 (R&D systems, Cat. No.:P25942) was plated in an amount of 100.0 ng per well into a MaxiSorp ELISA plate and reacted at 37° C. for one hour for antibody coating, followed by blocking by incubation with 200 μL of 1× blocking solution (Sigma) per well at 37° C. for one hour.

[4] = target: T1, recombinant antigen human CD40L …; assay: ELISA, antigen coated at 1.0 µg/mL, antibody at 1.0 µg/mL, anti-mouse IgG-HRP
[5] = target: T4, human CD40 expressed on Ramos cell line (ATCC CRL-1596) (human, UniProt P25942 21-277); assay: flow cytometry on Ramos cells, FITC-5C2 1.0 µg/mL, with or without preincubation with CD40L 15.0 µg/mL
T4 construct: whole, on cells; Endogenous CD40 on Ramos cells; also called CD40 on Ramos cells
T4 sequence (P25942 21-277): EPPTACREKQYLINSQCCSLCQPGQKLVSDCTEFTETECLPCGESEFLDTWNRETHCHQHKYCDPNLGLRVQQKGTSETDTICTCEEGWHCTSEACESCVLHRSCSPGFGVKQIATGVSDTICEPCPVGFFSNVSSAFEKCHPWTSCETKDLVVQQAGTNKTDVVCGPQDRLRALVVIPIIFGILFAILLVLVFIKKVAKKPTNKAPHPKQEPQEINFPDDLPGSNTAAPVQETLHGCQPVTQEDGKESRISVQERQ
Method: A solution of FITC Isomer I (Invitrogen, Cat. No.: F1906) at a concentration of 2.6 mg/mL in DMSO (Sigma-Aldrich, Cat. No.:276855) was added in an amount of 20.0 μL to each of the antibody solutions. After FITC conjugation by stirring at room temperature for 2 hours, the resulting antibody solutions were dialyzed against phosphate buffered saline to obtain FITC-labeled antibodies.
The cells were washed again with phosphate buffered saline and then subjected to fluorescent immunoassay using flow cytometry (Stratedigm, S1000EXi).

Binder	binding result [2]	also measured
B1	–	binding result [1]: binds
B2	–	binding result [1]: binds
B3	–	binding result [1]: binds
B4	binds	–
B5	binds	–
B6	binds	–
B7	binds	–
B8	binds	–
B9	binds	–
B10	binds	–
B11	binds	–
B12	–	binding result [3]: binds; binding result [4]: no binding (tested: 1.0 µg/mL); binding result [5]: binds
